Results on six molecules are retold here after patent publication US20020061531, “Detection of binding factors with fluorescence polarization” (published 2002).

Like-named read-outs stand apart in the source and are kept apart here.

Data set [1] has as its target T1, HIV-1 reverse transcriptase (p66/p51) (Human immunodeficiency virus 1, UniProt P04585;P04585 P04585:588-1147,P04585:588-1027). Kind of data set: CE/LIF; two complex peaks; lower binding constant than RT 26; 1xTBE. The settings on record: tags: Worthington Biochemicals; chain copies: heterodimer (stated).
For data set [2], the target named is MMLV reverse transcriptase (Moloney murine leukemia virus, UniProt P03355 P03355:660-1330).
Data set [3] addresses T1, HIV-1 reverse transcriptase (p66/p51).
Data set [4] has as its target T2, SSB protein (UniProt P0AGE0 P0AGE0:2-178). The data set can be described thus: FP; CE/LIFP anisotropy 0.05 to 0.25; 25 mM Na2B4O7 pH 9.1. The settings on record: tags: Sigma; unlabeled; chain copies: tetramer (stated); label: fluorescein.
Data set [5] addresses T2, SSB protein. Kind of data set: CE mobility; 25 mM Na2B4O7 pH 9.1, SSB in running buffer; Hill fit. The note with it: tags: Sigma; unlabeled; chain copies: tetramer (stated); label: fluorescein.
The next data set has as its target trp repressor (Escherichia coli, UniProt P0A881 P0A881:2-108). The data set can be described thus: FP; CE/LIFP polarization 0.11 free to 0.25 with repressor; trp binding buffer pH 7.6.
The target in data set [6] is T2, SSB protein. The data set can be described thus: FP; 1:1 complex; mobility and anisotropy gave similar values; 2:1 complex also seen; A=0.23. The settings on record: tags: Sigma; unlabeled; chain copies: tetramer (stated); label: fluorescein.
Data set [7] addresses SSB protein, FITC-labeled (UniProt P0AGE0 P0AGE0:2-178). The data set can be described thus: CE mobility shift of FITC-SSB, anisotropy change only ~0.02; pH 9.1. The note with it: tags: FITC (5.3 dye per protein), Sigma; chain copies: tetramer (stated).

T2 sequence (P0AGE0 2-178, one chain of several): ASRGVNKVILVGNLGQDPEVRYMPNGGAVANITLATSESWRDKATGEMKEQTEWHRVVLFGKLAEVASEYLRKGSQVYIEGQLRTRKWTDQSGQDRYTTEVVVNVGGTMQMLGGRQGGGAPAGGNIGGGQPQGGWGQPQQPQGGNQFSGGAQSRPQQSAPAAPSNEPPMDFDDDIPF
Chain of SSB protein, FITC-labeled (P0AGE0 2-178, one chain of several): as above

B1: RT 12 aptamer (ssDNA)
DNA: ATCTACTGGATTAGCGATACTCGATTAGGTCCCCTGCCGCTAAACCATACCGCGGTAACTTGAGCAAAATCACCACTGCAGGGG
Take B1: the binding result in data set [1] was “binds”.

B2: RT 26 aptamer (ssDNA)
DNA: ATCCGCCTGATTAGCGATACTTACGTGAGCGTGCTGTCCCCTAAAGGTGATACGTCACTTGAGCAAAATCACCTGCAGGGG
For the molecule B2, the results for the binding result in data set [2] and in data set [3] were “no binding” and “binds”, respectively.

In the case of CGCGATACGCC (ssDNA) [F-11-mer], the Ka in the data set with SSB protein [4] was roughly 5e+06 M⁻¹; with SSB protein [5] it was roughly 4.4e+06 M⁻¹.

B3: trp operator 25 bp (dsDNA)
DNA 1: ATCGAACTAGTTAACTAGTACGCAA
DNA 2: TTGCGTACTAGTTAACTAGTTCGAT
Take B3: the binding result with trp repressor is “binds”.

CCTTAAGCTTCCTCAACCACTTACCATACTCGAGATT (ssDNA) [F-37-mer]: the Ka with SSB protein [6] was roughly 2e+07 M⁻¹.

Regarding TTTTTTTTTTTTTTTTTT (ssDNA) [d(pT)18], the binding result in data set [7] was “binds”.
